B1: GpH7-A5/GpH7-B3 variant A327_07I/GpL16-k0 (antibody, human IgG1, kappa)
heavy 1: not shown
heavy 2: not shown
light: DIVMTQSPLSLPVTPGEPASISCQASESLVHSNRNTYLHWYLQKPGQSPQLLIYKVSNRFSGVPDRFSGSGSGTDFTLKISRVEAEDVGVYYCSQNTHVPPTFGQGTKVEIERTVAAPSVFIFPPSDEQLKSGTASVVCLLNNFYPREAKVQWKVDNALQSGNSQESVTEQDSKDSTYSLSSTLTLSKADYEKHKVYACEVTHQGLSSPVTKSFNRGEC
notes: mutation in the GpH7-B3 chain only; also called He Ab
B2: GpH7-A5/GpH7-B3 variant L328_14T/GpL16-k0 (antibody, human IgG1, kappa)
heavy 1: not shown
heavy 2: not shown
light: B1 light
notes: as for B1
B3: GpH7-A5/GpH7-B3 variant N325_04F/GpL16-k0 (antibody, human IgG1, kappa)
heavy 1: not shown
heavy 2: not shown
light: B1 light
notes: as for B1
B4: GpH7-A5/GpH7-B3 variant P331_07I/GpL16-k0 (antibody, human IgG1, kappa)
heavy 1: not shown
heavy 2: not shown
light: B1 light
notes: as for B1
B5: GpH7-A5/GpH7-B3 variant L328_19Q/GpL16-k0 (antibody, human IgG1, kappa)
heavy 1: not shown
heavy 2: not shown
light: B1 light
notes: as for B1
B6: GpH7-A5/GpH7-B3 variant L328_03V/GpL16-k0 (antibody, human IgG1, kappa)
heavy 1: not shown
heavy 2: not shown
light: B1 light
notes: as for B1
B7: GpH7-A5/GpH7-B3 variant N325_03V/GpL16-k0 (antibody, human IgG1, kappa)
heavy 1: not shown
heavy 2: not shown
light: B1 light
notes: as for B1
B8: GpH7-A5/GpH7-B3 variant L328_02A/GpL16-k0 (antibody, human IgG1, kappa)
heavy 1: not shown
heavy 2: not shown
light: B1 light
notes: as for B1
B9: GpH7-A5/GpH7-B3 variant L328_06M/GpL16-k0 (antibody, human IgG1, kappa)
heavy 1: not shown
heavy 2: not shown
light: B1 light
notes: as for B1
B10: GpH7-A5/GpH7-B3 variant L328_10E/GpL16-k0 (antibody, human IgG1, kappa)
heavy 1: not shown
heavy 2: not shown
light: B1 light
notes: as for B1
B11: GpH7-A5/GpH7-B3 variant L328_20W/GpL16-k0 (antibody, human IgG1, kappa)
heavy 1: not shown
heavy 2: not shown
light: B1 light
notes: as for B1
B12: GpH7-A5/GpH7-B3 variant N325_08L/GpL16-k0 (antibody, human IgG1, kappa)
heavy 1: not shown
heavy 2: not shown
light: B1 light
notes: as for B1
B13: GpH7-A5/GpH7-B3 variant S337_07I/GpL16-k0 (antibody, human IgG1, kappa)
heavy 1: not shown
heavy 2: not shown
light: B1 light
notes: as for B1
B14: GpH7-A5/GpH7-B3 variant A330_01G/GpL16-k0 (antibody, human IgG1, kappa)
heavy 1: not shown
heavy 2: not shown
light: B1 light
notes: as for B1
B15: GpH7-A5/GpH7-B3 variant P331_03V/GpL16-k0 (antibody, human IgG1, kappa)
heavy 1: not shown
heavy 2: not shown
light: B1 light
notes: as for B1
B16: GpH7-A5/GpH7-B3 variant P331_06M/GpL16-k0 (antibody, human IgG1, kappa)
heavy 1: not shown
heavy 2: not shown
light: B1 light
notes: as for B1
B17: GpH7-A5/GpH7-B3 variant N325_13S/GpL16-k0 (antibody, human IgG1, kappa)
heavy 1: not shown
heavy 2: not shown
light: B1 light
notes: as for B1
B18: GpH7-A5/GpH7-B3 variant L328_04F/GpL16-k0 (antibody, human IgG1, kappa)
heavy 1: not shown
heavy 2: not shown
light: B1 light
notes: as for B1
B19: GpH7-A5/GpH7-B3 variant S337_08L/GpL16-k0 (antibody, human IgG1, kappa)
heavy 1: not shown
heavy 2: not shown
light: B1 light
notes: as for B1
B20: GpH7-A5/GpH7-B3 variant P331_10E/GpL16-k0 (antibody, human IgG1, kappa)
heavy 1: not shown
heavy 2: not shown
light: B1 light
notes: as for B1
B21: GpH7-A5/GpH7-B3 variant L328_13S/GpL16-k0 (antibody, human IgG1, kappa)
heavy 1: not shown
heavy 2: not shown
light: B1 light
notes: as for B1
B22: GpH7-A5/GpH7-B3 variant A327_09D/GpL16-k0 (antibody, human IgG1, kappa)
heavy 1: not shown
heavy 2: not shown
light: B1 light
notes: as for B1
B23: GpH7-A5/GpH7-B3 variant P331_20W/GpL16-k0 (antibody, human IgG1, kappa)
heavy 1: not shown
heavy 2: not shown
light: B1 light
notes: as for B1
B24: GpH7-A5/GpH7-B3 variant L328_09D/GpL16-k0 (antibody, human IgG1, kappa)
heavy 1: not shown
heavy 2: not shown
light: B1 light
notes: as for B1
B25: GpH7-A5/GpH7-B3 variant N325_06M/GpL16-k0 (antibody, human IgG1, kappa)
heavy 1: not shown
heavy 2: not shown
light: B1 light
notes: as for B1
B26: GpH7-A5/GpH7-B3 variant L328_15Y/GpL16-k0 (antibody, human IgG1, kappa)
heavy 1: not shown
heavy 2: not shown
light: B1 light
notes: as for B1
B27: GpH7-A5/GpH7-B3 variant N325_07I/GpL16-k0 (antibody, human IgG1, kappa)
heavy 1: not shown
heavy 2: not shown
light: B1 light
notes: as for B1
B28: GpH7-A5/GpH7-B3 variant N325_09D/GpL16-k0 (antibody, human IgG1, kappa)
heavy 1: not shown
heavy 2: not shown
light: B1 light
notes: as for B1
B29: GpH7-A5/GpH7-B3 variant N325_20W/GpL16-k0 (antibody, human IgG1, kappa)
heavy 1: not shown
heavy 2: not shown
light: B1 light
notes: as for B1
B30: GpH7-A5/GpH7-B3 variant L328_07I/GpL16-k0 (antibody, human IgG1, kappa)
heavy 1: not shown
heavy 2: not shown
light: B1 light
notes: as for B1
B31: GpH7-A5/GpH7-B3 variant K334_12R/GpL16-k0 (antibody, human IgG1, kappa)
heavy 1: not shown
heavy 2: not shown
light: B1 light
notes: as for B1
B32: GpH7-A5/GpH7-B3 variant I332_04F/GpL16-k0 (antibody, human IgG1, kappa)
heavy 1: not shown
heavy 2: not shown
light: B1 light
notes: as for B1
B33: GpH7-A5/GpH7-B3 variant P331_16H/GpL16-k0 (antibody, human IgG1, kappa)
heavy 1: not shown
heavy 2: not shown
light: B1 light
notes: as for B1
B34: GpH7-A5/GpH7-B3 variant P331_04F/GpL16-k0 (antibody, human IgG1, kappa)
heavy 1: not shown
heavy 2: not shown
light: B1 light
notes: as for B1
B35: GpH7-A5/GpH7-B3 variant A327_10E/GpL16-k0 (antibody, human IgG1, kappa)
heavy 1: not shown
heavy 2: not shown
light: B1 light
notes: as for B1
B36: GpH7-A5/GpH7-B3 variant P331_15Y/GpL16-k0 (antibody, human IgG1, kappa)
heavy 1: not shown
heavy 2: not shown
light: B1 light
notes: as for B1
B37: GpH7-A5/GpH7-B3 variant A327_18N/GpL16-k0 (antibody, human IgG1, kappa)
heavy 1: not shown
heavy 2: not shown
light: B1 light
notes: as for B1

Assays:
FcγRIIIa = target: T1, FcγRIIIa (human, UniProt P08637 17-208); assay: SPR (Biacore), relative binding
T1 construct: extracellular domain; also called FcgRIIIa; 3a

FcγRIIb = target: T2, FcγRIIb (human, UniProt P31994 43-217); assay: SPR (Biacore), relative binding
T2 construct: extracellular domain; also called FcgRIIb; 2b
T2 sequence (looked up): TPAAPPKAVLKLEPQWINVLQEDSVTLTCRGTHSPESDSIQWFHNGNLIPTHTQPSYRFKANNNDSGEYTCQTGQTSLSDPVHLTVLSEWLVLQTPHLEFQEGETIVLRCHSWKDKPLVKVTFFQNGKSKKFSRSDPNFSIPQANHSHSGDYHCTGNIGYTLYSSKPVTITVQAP

T1 sequence (P08637 17-208): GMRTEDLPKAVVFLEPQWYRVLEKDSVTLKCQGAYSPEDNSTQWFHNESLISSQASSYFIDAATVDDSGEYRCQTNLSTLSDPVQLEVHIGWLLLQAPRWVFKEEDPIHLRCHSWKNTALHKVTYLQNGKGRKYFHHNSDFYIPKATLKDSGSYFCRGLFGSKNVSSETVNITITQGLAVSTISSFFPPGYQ

Binder	He/Con_3a (FcγRIIIa)	He/Con_2b (FcγRIIb)
B1	42.4 % of GpH7-A5/GpH7-B3/GpL16-k0	127 % of GpH7-A5/GpH7-B3/GpL16-k0
B2	75.3 % of GpH7-A5/GpH7-B3/GpL16-k0	141 % of GpH7-A5/GpH7-B3/GpL16-k0
B3	20.7 % of GpH7-A5/GpH7-B3/GpL16-k0	143 % of GpH7-A5/GpH7-B3/GpL16-k0
B4	66 % of GpH7-A5/GpH7-B3/GpL16-k0	114 % of GpH7-A5/GpH7-B3/GpL16-k0
B5	81.1 % of GpH7-A5/GpH7-B3/GpL16-k0	105 % of GpH7-A5/GpH7-B3/GpL16-k0
B6	78.7 % of GpH7-A5/GpH7-B3/GpL16-k0	126 % of GpH7-A5/GpH7-B3/GpL16-k0
B7	30.3 % of GpH7-A5/GpH7-B3/GpL16-k0	111 % of GpH7-A5/GpH7-B3/GpL16-k0
B8	79.1 % of GpH7-A5/GpH7-B3/GpL16-k0	144 % of GpH7-A5/GpH7-B3/GpL16-k0
B9	78.6 % of GpH7-A5/GpH7-B3/GpL16-k0	142 % of GpH7-A5/GpH7-B3/GpL16-k0
B10	53.4 % of GpH7-A5/GpH7-B3/GpL16-k0	172 % of GpH7-A5/GpH7-B3/GpL16-k0
B11	37.4 % of GpH7-A5/GpH7-B3/GpL16-k0	235 % of GpH7-A5/GpH7-B3/GpL16-k0
B12	33.3 % of GpH7-A5/GpH7-B3/GpL16-k0	197 % of GpH7-A5/GpH7-B3/GpL16-k0
B13	94.8 % of GpH7-A5/GpH7-B3/GpL16-k0	104 % of GpH7-A5/GpH7-B3/GpL16-k0
B14	89.1 % of GpH7-A5/GpH7-B3/GpL16-k0	104 % of GpH7-A5/GpH7-B3/GpL16-k0
B15	73.2 % of GpH7-A5/GpH7-B3/GpL16-k0	119 % of GpH7-A5/GpH7-B3/GpL16-k0
B16	74.8 % of GpH7-A5/GpH7-B3/GpL16-k0	102 % of GpH7-A5/GpH7-B3/GpL16-k0
B17	65.1 % of GpH7-A5/GpH7-B3/GpL16-k0	177 % of GpH7-A5/GpH7-B3/GpL16-k0
B18	79.3 % of GpH7-A5/GpH7-B3/GpL16-k0	219 % of GpH7-A5/GpH7-B3/GpL16-k0
B19	96.9 % of GpH7-A5/GpH7-B3/GpL16-k0	100 % of GpH7-A5/GpH7-B3/GpL16-k0

Binder	He/Con_3a (FcγRIIIa)	He/Con_2b (FcγRIIb)
B20	75.1 % of GpH7-A5/GpH7-B3/GpL16-k0	116 % of GpH7-A5/GpH7-B3/GpL16-k0
B21	71.7 % of GpH7-A5/GpH7-B3/GpL16-k0	149 % of GpH7-A5/GpH7-B3/GpL16-k0
B22	83.7 % of GpH7-A5/GpH7-B3/GpL16-k0	172 % of GpH7-A5/GpH7-B3/GpL16-k0
B23	78.6 % of GpH7-A5/GpH7-B3/GpL16-k0	111 % of GpH7-A5/GpH7-B3/GpL16-k0
B24	47.8 % of GpH7-A5/GpH7-B3/GpL16-k0	199 % of GpH7-A5/GpH7-B3/GpL16-k0
B25	31.4 % of GpH7-A5/GpH7-B3/GpL16-k0	217 % of GpH7-A5/GpH7-B3/GpL16-k0
B26	68.3 % of GpH7-A5/GpH7-B3/GpL16-k0	193 % of GpH7-A5/GpH7-B3/GpL16-k0
B27	28.7 % of GpH7-A5/GpH7-B3/GpL16-k0	171 % of GpH7-A5/GpH7-B3/GpL16-k0
B28	48 % of GpH7-A5/GpH7-B3/GpL16-k0	124 % of GpH7-A5/GpH7-B3/GpL16-k0
B29	32.8 % of GpH7-A5/GpH7-B3/GpL16-k0	169 % of GpH7-A5/GpH7-B3/GpL16-k0
B30	84 % of GpH7-A5/GpH7-B3/GpL16-k0	160 % of GpH7-A5/GpH7-B3/GpL16-k0
B31	90.8 % of GpH7-A5/GpH7-B3/GpL16-k0	111 % of GpH7-A5/GpH7-B3/GpL16-k0
B32	97.6 % of GpH7-A5/GpH7-B3/GpL16-k0	104 % of GpH7-A5/GpH7-B3/GpL16-k0
B33	80.2 % of GpH7-A5/GpH7-B3/GpL16-k0	116 % of GpH7-A5/GpH7-B3/GpL16-k0
B34	77.3 % of GpH7-A5/GpH7-B3/GpL16-k0	110 % of GpH7-A5/GpH7-B3/GpL16-k0
B35	68.6 % of GpH7-A5/GpH7-B3/GpL16-k0	140 % of GpH7-A5/GpH7-B3/GpL16-k0
B36	81.9 % of GpH7-A5/GpH7-B3/GpL16-k0	114 % of GpH7-A5/GpH7-B3/GpL16-k0
B37	61.1 % of GpH7-A5/GpH7-B3/GpL16-k0	113 % of GpH7-A5/GpH7-B3/GpL16-k0
